Data on 36 sequences can be found in the supplement of paper PMC10567573.

± gives the standard deviation.

The nature of this series: protein stability index of a GFP-peptide fusion (GPS, HEK-293T) (PSI 1-6); higher = more stable. To be noted: c terminus: a fixed tail appended.
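Further: 24-mer peptide tiles fused after GFP, lentivirally expressed, FACS-sorted into six equal bins by GFP/DsRed ratio, decoded by Illumina sequencing, PSI is the read-weighted mean bin number.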

For EGDLPQMEVGSGSRELSLRPSRSG [EID1], the protein stability index is 5.07 ± 0.31 (treatment: DMSO) and 5.36 ± 0.35 (treatment: MLN4924 1 uM, 8 h).

EGHPFKAYLELEITLSQEQIQKYT [RTN1]: the protein stability index by setting is: (treatment: DMSO) 2.33 ± 0.67; (treatment: MLN4924 1 uM, 8 h) 2.13 ± 0.26.

Regarding EGVKRYEQEHAAIQDKLFQVAKRE [CHCHD6], the protein stability index is 4.84 ± 0.32 (treatment: DMSO) and 4.78 ± 0.24 (treatment: MLN4924 1 uM, 8 h).

Regarding EIFAIDLRCGNQGKGWKATRLFHD [DCAF4], the protein stability index runs as follows: (treatment: DMSO) 2.24 ± 0.44; (treatment: MLN4924 1 uM, 8 h) 2.12 ± 0.22.

With EISKDNSCKENCTCSSCLLRAPTI [EDARADD], the protein stability index stood at 4.67 ± 0.29 (treatment: DMSO) and 4.86 ± 0.14 (treatment: MLN4924 1 uM, 8 h).

On to EKAKAFWAMRRSYEAIAKHNQVEA [TRIM35], for which the protein stability index is, setting by setting: (treatment: DMSO) 2.83 ± 0.34; (treatment: MLN4924 1 uM, 8 h) 3.18 ± 0.26.

Regarding EKIAAEIAQAEEQARKRQEEREKE [SMARCE1], the protein stability index came to 5.44 ± 0.17 (treatment: DMSO) and 5.74 ± 0.25 (treatment: MLN4924 1 uM, 8 h).

On to EKILRELSEEEEDEEEEEEEEEEG [KCNA4], for which the protein stability index runs as follows: (treatment: DMSO) 5.65 ± 0.2; (treatment: MLN4924 1 uM, 8 h) 5.69 ± 0.17.

For the sequence EKIWRPNRVFSLQDLCCRAIVSCT [RAB40C], the protein stability index (treatment: DMSO) was 2.76 ± 0.19 and the protein stability index (treatment: MLN4924 1 uM, 8 h) is 2.88 ± 0.14.

EKKDDENIPMETEETHLEETTESQ [SMARCE1]: the protein stability index (treatment: DMSO) was determined as 5.58 ± 0.43 and the protein stability index (treatment: MLN4924 1 uM, 8 h) was 5.39 ± 0.57.

As for EKKDTITNDSLSLKPSWFDFGFAI [MIA2], the protein stability index runs as follows: (treatment: DMSO) 2.46 ± 0.19; (treatment: MLN4924 1 uM, 8 h) 2.48 ± 0.19.

In turn, EKNRKDAEDWFFSKTEELNREVAT [KRT17] had a protein stability index (treatment: DMSO) of 4.5 ± 0.14 and a protein stability index (treatment: MLN4924 1 uM, 8 h) of 4.71 ± 0.27.

In the case of ELACPAERSGHVAVSDGRHMFVWG [KLHDC2], the protein stability index by setting is: (treatment: DMSO) 2.84 ± 0.15; (treatment: MLN4924 1 uM, 8 h) 2.92 ± 0.2.

For the sequence ELDIPQSVQQNGSIYIHVYFTKSG [CLPTM1], the protein stability index by setting is: (treatment: DMSO) 2.3 ± 0.57; (treatment: MLN4924 1 uM, 8 h) 2.85 ± 0.67.

ELEKLAEKNIILEEKIQVLQQQNE [MTUS2]: the protein stability index is, setting by setting: (treatment: DMSO) 4.63 ± 0.32; (treatment: MLN4924 1 uM, 8 h) 4.53 ± 0.22.

Take ELQLEAANETYENNFDNLDFDLDL [ATF6]: the protein stability index turned out to be 4.76 ± 0.26 (treatment: DMSO) and 5.08 ± 0.11 (treatment: MLN4924 1 uM, 8 h).

As for ENARSGAEAEPEDQDEGEWGLDQE [ZBED1], the protein stability index runs as follows: (treatment: DMSO) 5.62 ± 0.15; (treatment: MLN4924 1 uM, 8 h) 5.56 ± 0.28.

For the sequence ENFQEGKDMSESQDEVPDEVENQF [TAF7L], the protein stability index runs as follows: (treatment: DMSO) 5.58 ± 0.2; (treatment: MLN4924 1 uM, 8 h) 5.56 ± 0.24.

As for ENITTVSVIKDHHTRSITSCCFDP [WDR88], the protein stability index came out at 3.55 ± 0.28 (treatment: DMSO) and 3.78 ± 0.16 (treatment: MLN4924 1 uM, 8 h).

Turning to ENLDNDTETDSLVSAQRERPRRRD [DVL3], the protein stability index was 5.51 ± 0.2 (treatment: DMSO) and 5.41 ± 0.29 (treatment: MLN4924 1 uM, 8 h).

Regarding ENQLVRKQDVLGPSTTPPAHSSSN [SASS6], the protein stability index runs as follows: (treatment: DMSO) 5.19 ± 0.21; (treatment: MLN4924 1 uM, 8 h) 5.29 ± 0.069.

In the case of EPGGYDSSSTLMSSELETTSFFDS [DVL3], the protein stability index (treatment: DMSO) turned out to be 4.96 ± 0.31 and the protein stability index (treatment: MLN4924 1 uM, 8 h) is 4.96 ± 0.21.

As to EPSLKATMGLAGRARVKEKFSPEA [ALG2], the protein stability index came to 4.6 ± 0.34 (treatment: DMSO) and 4.94 ± 0.19 (treatment: MLN4924 1 uM, 8 h).

With EQLQGFNTRVRELAQAAGFAPQTG [DNAAF3], the protein stability index amounted to 3.66 ± 0.28 (treatment: DMSO) and 3.91 ± 0.67 (treatment: MLN4924 1 uM, 8 h).

For the sequence ERGPYRTRKHAHHCHKRRTRSCSS [CLK3], the protein stability index is, setting by setting: (treatment: DMSO) 4.42 ± 0.24; (treatment: MLN4924 1 uM, 8 h) 4.51 ± 0.15.

For the sequence ERGSMKTHFNTAQGFRTVLELVIN [OAS1], the protein stability index came to 2.13 ± 0.43 (treatment: DMSO) and 2.5 ± 0.56 (treatment: MLN4924 1 uM, 8 h).

As for ERGTPGLPGPKGDDGKLGATGPMG [SCARA5], the protein stability index reads like this: (treatment: DMSO) 4.92 ± 0.34; (treatment: MLN4924 1 uM, 8 h) 4.95 ± 0.15.

ERITILRGNHESRQITQVYGFYDE [PPP2CA]: the protein stability index was 2.84 ± 0.13 (treatment: DMSO) and 3.1 ± 0.25 (treatment: MLN4924 1 uM, 8 h).

For ERLQKEEEKRRREEEERLRREEEE [ACBD3], the protein stability index (treatment: DMSO) was found to be 5.67 ± 0.26 and the protein stability index (treatment: MLN4924 1 uM, 8 h) is 5.59 ± 0.23.

Take ERPPPPPSDDLTLLESSSSYKNLT [MCOLN1]: the protein stability index is, setting by setting: (treatment: DMSO) 5 ± 0.21; (treatment: MLN4924 1 uM, 8 h) 4.93 ± 0.21.

ERQCALRVFKARIYTNRYETNEED [FBXO39] showed a protein stability index (treatment: DMSO) of 3.54 ± 0.36 and a protein stability index (treatment: MLN4924 1 uM, 8 h) of 3.61 ± 0.41.

ERWLKELRDHADSNIVIMLVGNKS [RAB11A] showed a protein stability index (treatment: DMSO) of 2.32 ± 0.29 and a protein stability index (treatment: MLN4924 1 uM, 8 h) of 2.26 ± 0.34.

ESFYESTSPECASPQFEGPLSPPP [NEUROD6]: the protein stability index is, setting by setting: (treatment: DMSO) 4.92 ± 0.19; (treatment: MLN4924 1 uM, 8 h) 4.94 ± 0.22.

ESIESYDSCDRLTQSWSSQSSFNS [ETS1]: the protein stability index was found to be 3.91 ± 0.34 (treatment: DMSO) and 4.1 ± 0.3 (treatment: MLN4924 1 uM, 8 h).

As for ESLPVSLGPESWQQIAMDPEEVKS [BCL2L13], the protein stability index is, setting by setting: (treatment: DMSO) 5.39 ± 0.21; (treatment: MLN4924 1 uM, 8 h) 5.27 ± 0.31.

In the case of ESQLPEEWENNRESLIVFMEQVHR [CPXM2], the protein stability index came out at 3.79 ± 0.33 (treatment: DMSO) and 3.82 ± 0.49 (treatment: MLN4924 1 uM, 8 h).
